# Laboratory results: the DeepSol protein solubility set
# Experiment: soluble on expression in E. coli; label from the status in PepcDB or PDB records
row,Sequence,soluble on expression in E. coli
1,MTENVNSSGDSAIKSEDKEEVTVIQEGQAKVGFHGPVFYNPVQEFNRDLTVTVLRQFSADHQKWAEEQKQLKTEEEPPKKKNKLAINEDGKIRILDALSASGLRALRFSKEVPNVGFIMANDFSDNAVASIQENVKLNGVEDIVEAHFGDAVMTMMEHRGIDKRFHAVDLDPYGTASTFLDSAVQCVADRGILMVTCTDMAVLCGNTPEACYNKYDAVTTRMKCCHEVGLRILLRAIDSAANRYTRYIEPLVSISVDFYVRVFVRVHTGAFQAKQSGTKVGTVLVCSGCHSMEPLVLLKRGEGNQQSKYSIPTVRHSISGPGNRCIHCLLPLHQIGPIYLAPIHSKPFVTSLLERLKSTPEAERLGTHGRLQGVLTMVNEELDDVLYYEHNQMANVVKVSVPKSQSVRSAILNAGFKVSGSHCNPRAIKTNAPMHLLWDIYRQVAKDTSVDREKRLAKESAGYHILGQPITNTVNFTLHPGAIEQAKKENLVRFQCNKGKNWGPRQKAKGSVNSTKAGFQLTEHKE,not soluble
2,MTEPKPRARRSGAAPARTRDDQVVDRRRSLLKAAVKVISKRGLTGVTINSIAAEAKCSYGVVAFHFQSKEGIIFAALDHTAAEYEAYLAQLNASQRGPAERIRHMIDTDFSRKAAGHESIALWLAFWAEAARVPSFRQRCAALRVQYNEAVAADVAELAALRGRTVEAEQVALTLNAMISGLWVENLLLPITIAEGQKRGHDASLAYLRLIFPDDF,not soluble
3,MTEPLTETPELSAKYAWFFDLDGTLAEIKPHPDQVVVPDNILQGLQLLATASDGALALISGRSMVELDALAKPYRFPLAGVHGAERRDINGKTHIVHLPDAIARDISVQLHTVIAQYPGAELEAKGMAFALHYRQAPQHEDALMTLAQRITQIWPQMALQQGKCVVEIKPRGTSKGEAIAAFMQEAPFIGRTPVFLGDDLTDESGFAVVNRLGGMSVKIGTGATQASWRLAGVPDVWSWLEMITTALQQKRENNRSDDYESFSRSILEHHHHHH,not soluble
4,MTEPSTSGAQDHDDYLVTLSSPQRQCTIRVVQPASALKRKLPTSSVPEFNPDSYGESIPENAPRPVCETCSVAWSTWAAYEFHMLQTHIIYRPFRCSGCRNLNFHTEDEGKHHLEHFHGGKPGSFQLIKQTDFAKENQLIECLENAKTTEQLGISKERLENGLKMIEKLQKIKFKAVKVHLPCCLRHEMISKHTETEKEAPPQEKSVTNAQKPGNPALLSLESRNYDYEQQDTVGI,not soluble
5,MTESIDGNPWRILELVAENEYHLEQDNNVDQLEQFSVIPGFQEELVEFAKKKLLDSIEVQQFLVERDIEFQEKNIASLIDELSDNQDDESNSKEIHLELKSSKNKYEGLRKKIASFKGRQQKAVGFLNSGLEEIRILTSPNDKFCYKVKNASWRCSVDNSIDLQKIKLICEKLIGLEKKMEVTFWTSEIMKLLENLDQRHYAVAFGIIIGMATWEYENSEKYHLLALIHLSIGRDETKTDVLLYWENWENESIEQSIVSLRILMIFYMKISIDDLECRENFEFRICQVIVFILEHKEFESSHLTMITELLGSIEQRFGNFTEMCDIMFTHFEAKAQMFDSYEAKMLVFMRNEHLSLLQTQHIDQCMDTLNILILLYLKIKIDKWTYREIIEQRISQFIICILEHTEFQSIHLTLIIQHLESIEQQFGCFSGKFDNMFKIFELKLQILDRPEQERVSKWIKSLSLRSSISEFSSEHSHSTVTVIEHSEKTYELEQNVRIDLEETLKLEKRIEEVSIEESKKKQEKLELKQREEEEARIKEEEEKQRKILEEEARKKQEEEEARLKAEEELKIYEEEKRKKELEEERKKKEELEIKRKAEEEKKKKALEEEKKRKIAEEKARQKQEKERKKQANKCTFLQNFTFIRHQHPSQTYNERVLDGKVVGLYFSAHWCPPSRDFTPVLAQFYSQVEDNFEILFVSSDNNTQEMNFYLQNFHGDWFHLPLNLCNSMKHRNTKNHIPALIIMKPDGTVITDDGRNLVSQWINDPKALVNHWKAMLN,not soluble
6,MTESTTSSPHDAVFKTFIFTPETARDFLEIHLPEPLRKLCNLQTLRLEPTSFIEKSLRAYYSDVLWSVETSDGDGYIYCVIEHQSSAEKNMAFRPMRYATAAMQSHLDKGYDRVPLVVPLLFYHGETSPYPYSLNWLDEFDDPQLARQLYTEAFPLVDITIVPDDEIMQHRRIALLELIQKHIRDHDLIGMVDRITTLLVRGFTNDSQLQTLFNYLLQCGDTSRFTRFIQEIAERSPLQKERLMTIAERLRQEGHQIGWQEGKLVGLQQGKLEGLQEGMHEQAIKIALRMLEQGIDRDQVLAATQLSEADLAANNH,not soluble
7,MTETDFKLKYWGNQEQDYILPTVGLGREYLVLGKLLISLSKWRAKGLIDFDVYLRPTGVGTLTNTINYEYYKGLEDKYDLTLYIRAKDSYYPLLWIDITGSSWTEEQSKERYGESIYAILSVKVETAKKYDVLGRVFFIHYNDTEDKLKCISALQILNLERQNKIKKDKFERGAKSEYYLIPTSYWKNLTELRIALRGFYQSFKEYLARSNK,soluble
8,MTETELSERLRTWLSQDNERMRALELVLQCAQVHDMPQWCIAAGFVRNLVWDKLHGFDRQPLNDIDLIYYCPLDARPERDWAIEACLRACAPELPWSVKNQARMHLKNHDNPYQSSSDAMAYWPEMETAVGVSLNPTLKTSASVIENLQIVAPFGLASLLALTLTRNPRRSLAVFEQRIIAKGWLSQYPQLVLAN,soluble
9,MTETTENVVITIPDKTSFTFHEAATSPSEGEEFVVGHFRELTVKISGSSTSREIKFYAVDENGEKTALSGTNKTDFQLGSSTLNTNEYWDFDIAGLFKVMFEVVSVTGDVTVKGIVVSLEHHHHHH,soluble
10,MTFEAITREWYQRRYDRWSESYRLEMMSTFESDVFPYIGYRPIKEIKPLELMAVLSKLEKRGATEKMRKVRQRCGEVWKYAIITGRAEYNPAPDLASAFAPHKREHLEHHHHHH,not soluble
11,MTFEKIEEAYQLLLENCQLIENDLKTHIYDAIVEQNSFYLGAEGASPQVAQNSDKLKALCLTKEEWRKAYQFLFIKAAQTEQLQANHQFTPDAIGFILLYLLEQLSDKDSLEVLEIGSGTGNLAQTLLNNTSKSLDYVGIELDDLLIDLSASIAEIMDSSAHFIQEDAVRPQLLKESDIVISDLPVGYYPNDDIAKRYKVASSDKHTYAHHLLMEQSLKYLKKDGFAIFLAPVNLLTSPQSQLLKQWLKDYAQVVTLITLPDSIFGHPSNAKSIIVLQKQTDHPMETFVYPIRDLKLAENIHDFMENFKKWKLSNVN,not soluble
12,MTFKPVEICVYGADVICPACVQLPSSKETYEWLEAALRRKYPDQPFVMTYVDIFAPPADDEEKRELAQTIVEEDWVYPVVVIEGNVVAEGNPRLKAICAEMEKFGYRPSAHEGKKAE,not soluble
13,MTFRPFWLDQALRSEHAAPCPPLAGDTRADVCIVGGGYTGLWTAIMLKEHDPGLDVVLVEADLCGAGASGRNGGCALSWSAKFFTLERLFGLTEAIRLVKASEDSIRAIGAFCQRYDVEADYRLDGTLYTATNPAQVGSTDSVIAALERHGINSFAKRPLADVQRLAGSRRHLEGWFSPAAATVQPGKLVRGLRRVALQLGVRLYEGTPMRGLEHGRPAEVVTPHGRVVAGRVVLALNAWMARAFPQFERSVAIVSSDMLITEPRPDLLQEIGLTSGVSVLDSRIFVHYYHNTPDGRLMLGKGGNTFAYGGRMLPVFDRPSPYLGQLRGSLREFFPEFAEVAIEASWNGPSDRSVTGLPFFGRLDGRDNVFYGFGYSGSGVGPCHMGGQILSSLALGLDNPWTRSPLTQGPLGRFPPEPIRYVGSLMVRNAIRRKEHAEDAGRRPRHLDVRLARFAAAAGKADKGLEHHHHHH,not soluble
14,MTGATGFIGKYIIDNLLARGFHVRALTRTARAHVNDNLTWVRGSLEDTHSLSELVAGASVVVHCAGQVRGHKEEIFTRCNVDGSLRLMQAAKESGFCQRFLFISSLAARHPELSWYAKSKYVAEQRLAAMADEITLGVFRPTAVYGPGDKELKPLFDWMLRGLLPRLGAPDTQLSFLHVTDFAQAVGQWLSAETVQTQTYELCDGVAGGYDWQRVRQLAAKARCGSVRMVDIPLPVLTGLADISTALSRLAGKEPMLTRSKIRELTHADWSASNNRISEDINWFPGISLEHALRNGLF,not soluble
15,MTGQAAGPAAGPAAGQATKHAGGRRPGETRTREAILTAARVCFAERGFDATSLRRIAETAGVDQSLVHHFYGTKENLFLQALELPGKIEEAITAAAQGGLDGIGERVVRAHLSVWDDVSSRPALMTMVRSAAIHRAAAARLRETATGILARALGGVITGEDAMLRTSMVATQLVGLAMMRYVAHLEPLASADTDTVARHYGRAVQAIVTDRD,soluble
16,MTGVDPTIVKIHEIQGTGTASPLVNNVVTIEAIVVGDFQDGDGDISRNLRGFYVQEEDADVDGNVATSEGIFIFENGNFITDVNVGDKVQITGTVDEFFGETQIDTITNITVISSGNTLPTAANITLPTAGTTESQGGTPQPDLEAFEGMLVKFTDTLTITEMFNLDRFNEIKLSQGGRPQQFTQFNDANVAGYGAYREEIGARTITYDDGLSVQNAEISNLDGFGSSFSTASDIRMGDTINNLTGVLSYQWAGNASSGATWRVRSAVDGTNQFTKVNDRPVTPENVGGSLKVTGFNVLLEHHHHHH,soluble
17,MTHKGSCHCGRIAFEVDGEPGSAMACNCSICQRKGSLLWFVPREHLHLLTPDENASTYTFNKHVIRHRFCPVCGMHPYGEGTGADGKAMVAINIRCLEDIDLAAVPVTQFDGRSRLEHHHHHH,soluble
18,MTIEFINCAGCKAKIAEEDVEKNKVVFFLNRMWHRDHIQCIFCKLQISDNRYFRSSIDPMKPSCYACHIQTNHPSCTGCSLPVIERGLVAFNRLFHIDCFRCAICNKTIPQRKGFYERDMMFYDDVCYMLHIKDVL,not soluble
19,MTIELRDVTMENYFDVLNLDVKEYQKQFIATNAISLAEAYVYTKNGDFVAPLAVYDNDAIIGFVMIAYDKKIGISSGNYLLFRFMIDKNFQNQGYFKPIMDKVLDYVRTAPAGLSNKLWLSYEPENEQARFCYLSYGFKETGEISENEVVAIYDLTIEK,not soluble
20,MTIIAGLPVEYNDRFIRGIAVFAPWRKTPGNYHQSHGACLGRRSRTITVVDEQPQGMDMDPTCSLFTTGQCLGEPDLLASARRLQFFSHQYSIAVLMANARGNSALWDEYGRLIVRADRGSLLLVGQRSSQGWQGDIIPLR,not soluble
21,MTIIFPSPIFGPVHSRRLGVSLGINLLPEDGKVCSFDCIYCECGFNADHRPKKHLPTREEVRIALEEKLKDMQKNGPAPDVLTFAGNGEPTAHPHFPEIIEDTLALRDHYFPNAKVSVLSNSTFIDRPAVFDALNKIDNNILKLDTVNEEYIHLLDRPNGKYSVRKIIEKMKEFKGNCIVQTMFLKGSYLGKDMNNTSDEFVLPWLEAVKEIAPSQVMIYTIDRETPDHDLQKATHEELDRIVELIKRTGIPATASY,not soluble
22,MTITNSKAEAWELIGNQFWTIGRVAARPSDRENDIFLENIVPGSTVAVIGASTRFLIEKALERGASVTVFDFSQRMCDDLAEALADRCVTIDLLDITAEIPKELAGHFDFVLNDRLINRFTTEEARRACLGMLSLVGSGTVRASVKLGFYDIDLKLIEYGEQSGTLAKFFDPSDKTFHFREAGDVLDRALVPHGLIDKPTLLEWYRRRGKETRFDDEDVRAL,not soluble
23,MTKEAVLYKKEDGRIRCLACARKCLIGEGQVGFCGVRSVRNGKLYLDVYGKIAAAHIDPIEKKPLVHFNPGSKVFSFSTYGCNWMCMYCQNYDISQRRKAEGVELSPEEIVELAMGYDVDGMTYTYNEPAIFSEFAHDVGIVAKRYGLFNTMVSNGYWTPNLVDYVKDFLDAVTIDFKGNGEQKFLRRYTGATSAEPIIETASELSKKGIHVEITDLIIPQIGDDLQAAKQLLTKLYDQLGADIPIHFLRFHPDYKLNYIPWTPVETLERHYKLAKELGFKFVYVGNVPGHPYENTYCPNCGNLVIRRYSFDILEWHLTEDMRCKFCGYKLPIRGKLSRHAFKERFEPVFI,not soluble
